The source of these data is PMC10786891, “Massively parallel profiling of RNA-targeting CRISPR-Cas13d”.

One may read the Kd as the free concentration of one partner at which half of the binding sites on the other are occupied at equilibrium, for simple one-to-one binding.

To fix the notation:
B1: target 1 insC 3' of 8,insU 3' of 6 (mixed)
RNA 1: CACCCGUGCAAAAAUGCAGGGGUCUAAAACUGAGCGGAUAACCUCUCUAUGG
RNA 2: GGGAAUGGAUCCACAUCUACGAAUUCGUACCAUAGAGAGGUUAUCCCUGCUCACCGAGAUCGGAAGAGCACACGU
B2: target 1 insA 3' of 22,insG 3' of 19 (mixed)
RNA 1: CACCCGUGCAAAAAUGCAGGGGUCUAAAACUGAGCGGAUAACCUCUCUAUGG
RNA 2: GGGAAUGGAUCCACAUCUACGAAUUCGUACACAUGAGAGAGGUUAUCCGCUCACCGAGAUCGGAAGAGCACACGU
B3: target 1 insA 3' of 17,insC 3' of 17 (mixed)
RNA 1: CACCCGUGCAAAAAUGCAGGGGUCUAAAACUGAGCGGAUAACCUCUCUAUGG
RNA 2: GGGAAUGGAUCCACAUCUACGAAUUCGUACCAUAGACAGAGGUUAUCCGCUCACCGAGAUCGGAAGAGCACACGU
B4: target 1 insC 3' of 22,insA 3' of 2 (mixed)
RNA 1: CACCCGUGCAAAAAUGCAGGGGUCUAAAACUGAGCGGAUAACCUCUCUAUGG
RNA 2: GGGAAUGGAUCCACAUCUACGAAUUCGUACCCAUAGAGAGGUUAUCCGCUCAACCGAGAUCGGAAGAGCACACGU
B5: target 1 insC 3' of 19,insA 3' of 7 (mixed)
RNA 1: CACCCGUGCAAAAAUGCAGGGGUCUAAAACUGAGCGGAUAACCUCUCUAUGG
RNA 2: GGGAAUGGAUCCACAUCUACGAAUUCGUACCAUCAGAGAGGUUAUCACGCUCACCGAGAUCGGAAGAGCACACGU
B6: target 1 insU 3' of 18,insA 3' of 11 (mixed)
RNA 1: CACCCGUGCAAAAAUGCAGGGGUCUAAAACUGAGCGGAUAACCUCUCUAUGG
RNA 2: GGGAAUGGAUCCACAUCUACGAAUUCGUACCAUAUGAGAGGUAUAUCCGCUCACCGAGAUCGGAAGAGCACACGU
B7: target 1 insA 3' of 22,insG 3' of 1 (mixed)
RNA 1: CACCCGUGCAAAAAUGCAGGGGUCUAAAACUGAGCGGAUAACCUCUCUAUGG
RNA 2: GGGAAUGGAUCCACAUCUACGAAUUCGUACACAUAGAGAGGUUAUCCGCUCAGCCGAGAUCGGAAGAGCACACGU
B8: target 1 U11G,G12C (mixed)
RNA 1: CACCCGUGCAAAAAUGCAGGGGUCUAAAACUGAGCGGAUAACCUCUCUAUGG
RNA 2: GGGAAUGGAUCCACAUCUACGAAUUCGUACCAUAGAGAGCGUAUCCGCUCACCGAGAUCGGAAGAGCACACGU
B9: target 1 insA 3' of 19,insC 3' of 8 (mixed)
RNA 1: CACCCGUGCAAAAAUGCAGGGGUCUAAAACUGAGCGGAUAACCUCUCUAUGG
RNA 2: GGGAAUGGAUCCACAUCUACGAAUUCGUACCAUAAGAGAGGUUAUCCCGCUCACCGAGAUCGGAAGAGCACACGU
B10: target 1 insU 3' of 15,insA 3' of 10 (mixed)
RNA 1: CACCCGUGCAAAAAUGCAGGGGUCUAAAACUGAGCGGAUAACCUCUCUAUGG
RNA 2: GGGAAUGGAUCCACAUCUACGAAUUCGUACCAUAGAGUAGGUUAAUCCGCUCACCGAGAUCGGAAGAGCACACGU
B11: target 1 insG 3' of 19,insU 3' of 12 (mixed)
RNA 1: CACCCGUGCAAAAAUGCAGGGGUCUAAAACUGAGCGGAUAACCUCUCUAUGG
RNA 2: GGGAAUGGAUCCACAUCUACGAAUUCGUACCAUGAGAGAGGUUUAUCCGCUCACCGAGAUCGGAAGAGCACACGU
B12: target 1 insG 3' of 14,insA 3' of 11 (mixed)
RNA 1: CACCCGUGCAAAAAUGCAGGGGUCUAAAACUGAGCGGAUAACCUCUCUAUGG
RNA 2: GGGAAUGGAUCCACAUCUACGAAUUCGUACCAUAGAGAGGGUAUAUCCGCUCACCGAGAUCGGAAGAGCACACGU
B13: target 1 insC 3' of 8,insC 3' of 5 (mixed)
RNA 1: CACCCGUGCAAAAAUGCAGGGGUCUAAAACUGAGCGGAUAACCUCUCUAUGG
RNA 2: GGGAAUGGAUCCACAUCUACGAAUUCGUACCAUAGAGAGGUUAUCCCGCCUCACCGAGAUCGGAAGAGCACACGU
B14: target 1 C4G,C6U (mixed)
RNA 1: CACCCGUGCAAAAAUGCAGGGGUCUAAAACUGAGCGGAUAACCUCUCUAUGG
RNA 2: GGGAAUGGAUCCACAUCUACGAAUUCGUACCAUAGAGAGGUUAUCUGGUCACCGAGAUCGGAAGAGCACACGU
B15: target 1 U11C,G12A (mixed)
RNA 1: CACCCGUGCAAAAAUGCAGGGGUCUAAAACUGAGCGGAUAACCUCUCUAUGG
RNA 2: GGGAAUGGAUCCACAUCUACGAAUUCGUACCAUAGAGAGACUAUCCGCUCACCGAGAUCGGAAGAGCACACGU
B16: target 1 G5C,U11G (mixed)
RNA 1: CACCCGUGCAAAAAUGCAGGGGUCUAAAACUGAGCGGAUAACCUCUCUAUGG
RNA 2: GGGAAUGGAUCCACAUCUACGAAUUCGUACCAUAGAGAGGGUAUCCCCUCACCGAGAUCGGAAGAGCACACGU
B17: target 1 insA 3' of 6,insA 3' of 6 (mixed)
RNA 1: CACCCGUGCAAAAAUGCAGGGGUCUAAAACUGAGCGGAUAACCUCUCUAUGG
RNA 2: GGGAAUGGAUCCACAUCUACGAAUUCGUACCAUAGAGAGGUUAUCCAAGCUCACCGAGAUCGGAAGAGCACACGU
B18: target 1 insG 3' of 14,insU 3' of 12 (mixed)
RNA 1: CACCCGUGCAAAAAUGCAGGGGUCUAAAACUGAGCGGAUAACCUCUCUAUGG
RNA 2: GGGAAUGGAUCCACAUCUACGAAUUCGUACCAUAGAGAGGGUUUAUCCGCUCACCGAGAUCGGAAGAGCACACGU
B19: target 1 G5U,G13U (mixed)
RNA 1: CACCCGUGCAAAAAUGCAGGGGUCUAAAACUGAGCGGAUAACCUCUCUAUGG
RNA 2: GGGAAUGGAUCCACAUCUACGAAUUCGUACCAUAGAGAUGUUAUCCUCUCACCGAGAUCGGAAGAGCACACGU
B20: target 1 insG 3' of 16,insC 3' of 5 (mixed)
RNA 1: CACCCGUGCAAAAAUGCAGGGGUCUAAAACUGAGCGGAUAACCUCUCUAUGG
RNA 2: GGGAAUGGAUCCACAUCUACGAAUUCGUACCAUAGAGGAGGUUAUCCGCCUCACCGAGAUCGGAAGAGCACACGU
B21: target 1 insU 3' of 20,insU 3' of 6 (mixed)
RNA 1: CACCCGUGCAAAAAUGCAGGGGUCUAAAACUGAGCGGAUAACCUCUCUAUGG
RNA 2: GGGAAUGGAUCCACAUCUACGAAUUCGUACCAUUAGAGAGGUUAUCCUGCUCACCGAGAUCGGAAGAGCACACGU
B22: target 1 A1G,G15C (mixed)
RNA 1: CACCCGUGCAAAAAUGCAGGGGUCUAAAACUGAGCGGAUAACCUCUCUAUGG
RNA 2: GGGAAUGGAUCCACAUCUACGAAUUCGUACCAUAGACAGGUUAUCCGCUCGCCGAGAUCGGAAGAGCACACGU
B23: target 1 C7U,G17A (mixed)
RNA 1: CACCCGUGCAAAAAUGCAGGGGUCUAAAACUGAGCGGAUAACCUCUCUAUGG
RNA 2: GGGAAUGGAUCCACAUCUACGAAUUCGUACCAUAAAGAGGUUAUUCGCUCACCGAGAUCGGAAGAGCACACGU

The target in the data set is T1, EsCas13d, nuclease-dead (Eubacterium siraeum, UniProt B0MS50, R295A;H300A;R849A;H854A).
T1 sequence: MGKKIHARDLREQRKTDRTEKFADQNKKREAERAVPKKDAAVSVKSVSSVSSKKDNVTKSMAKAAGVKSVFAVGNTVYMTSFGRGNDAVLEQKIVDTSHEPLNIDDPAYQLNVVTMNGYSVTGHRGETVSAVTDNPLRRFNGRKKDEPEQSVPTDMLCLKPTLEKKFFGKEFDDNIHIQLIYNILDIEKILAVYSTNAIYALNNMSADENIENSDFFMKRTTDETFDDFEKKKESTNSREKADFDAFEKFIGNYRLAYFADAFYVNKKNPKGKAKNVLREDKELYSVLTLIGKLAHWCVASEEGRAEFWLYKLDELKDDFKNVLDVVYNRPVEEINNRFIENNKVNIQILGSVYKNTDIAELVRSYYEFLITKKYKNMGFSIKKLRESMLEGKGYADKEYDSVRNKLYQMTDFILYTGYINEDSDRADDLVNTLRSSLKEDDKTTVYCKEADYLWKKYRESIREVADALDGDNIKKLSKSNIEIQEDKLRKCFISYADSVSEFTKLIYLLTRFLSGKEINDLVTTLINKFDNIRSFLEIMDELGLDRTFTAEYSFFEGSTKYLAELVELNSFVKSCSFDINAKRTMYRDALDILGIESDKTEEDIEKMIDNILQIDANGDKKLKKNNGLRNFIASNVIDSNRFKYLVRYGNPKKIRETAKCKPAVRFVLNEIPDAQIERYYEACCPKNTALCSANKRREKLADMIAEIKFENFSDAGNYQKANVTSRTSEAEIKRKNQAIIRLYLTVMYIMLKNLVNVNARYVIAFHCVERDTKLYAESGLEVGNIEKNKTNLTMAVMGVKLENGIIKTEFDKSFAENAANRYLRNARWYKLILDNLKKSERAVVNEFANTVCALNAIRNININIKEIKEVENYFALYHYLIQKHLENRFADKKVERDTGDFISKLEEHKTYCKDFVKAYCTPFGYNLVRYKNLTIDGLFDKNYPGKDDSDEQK
In words: crRNA (strand 1, pre-loaded); Mg2+; 40 mM Tris-HCl pH 7.5, 150 mM NaCl, 6 mM MgCl2, 1 mM DTT, 0.1% Tween-20, 0.2 mg/ml BSA; 25 C; 10 min per concentration, then washed. As to conditions: tags: His6-TwinStrep-SUMO cleaved; N-terminal SNAP kept (SNAP-Surface 488); label: 3' end held by stalled T7 RNA polymerase.
In turn, B1 gave a dissociation constant Kd of 21.1 ± 1.5 nM.
For B2 the value was 51 ± 7 nM.
On to B3, for which the affinity, expressed as Kd, was 41.4 ± 2.9 nM.
For B4 the value was 24 ± 4 nM; for B5, 26.6 ± 2.4 nM; for B6, 68 ± 6 nM.
The molecule B7 gave a dissociation constant Kd of 11.2 ± 0.4 nM.
The result for B8 reads 17 ± 1 nM; that for B9, 34 ± 4 nM.
For B10, binding was characterised by a dissociation constant (Kd) of 20.2 ± 1.1 nM.
For B11, the dissociation constant Kd is 48 ± 5 nM.
For B12 the value was 39.2 ± 2.6 nM.
For B13 the value was 14.6 ± 0.7 nM; for B14, 3.83 ± 0.2 nM; for B15, 8.9 ± 0.4 nM.
For B16 the value was 37 ± 5 nM; for B17, 17.4 ± 0.9 nM; for B18, 16.4 ± 2.4 nM.
In turn, B19 returned a dissociation constant (Kd) of 64 ± 8 nM. Compared with the last molecule, the Kd is about 3.9-fold higher.
The result for B20 reads 52 ± 5 nM; that for B21, 15.4 ± 0.6 nM; that for B22, 58 ± 9 nM.
In turn, B23 had a Kd of 34 ± 4 nM. Against the preceding molecule, the Kd is about 1.7-fold lower.
